Article PMC2063623

Molecular target: pCMV-BD-DLC-1 (human) (UniProt Q96QB1)
Assay: two-hybrid

Sequence of UniProt Q96QB1 (Q96QB1 whole entry): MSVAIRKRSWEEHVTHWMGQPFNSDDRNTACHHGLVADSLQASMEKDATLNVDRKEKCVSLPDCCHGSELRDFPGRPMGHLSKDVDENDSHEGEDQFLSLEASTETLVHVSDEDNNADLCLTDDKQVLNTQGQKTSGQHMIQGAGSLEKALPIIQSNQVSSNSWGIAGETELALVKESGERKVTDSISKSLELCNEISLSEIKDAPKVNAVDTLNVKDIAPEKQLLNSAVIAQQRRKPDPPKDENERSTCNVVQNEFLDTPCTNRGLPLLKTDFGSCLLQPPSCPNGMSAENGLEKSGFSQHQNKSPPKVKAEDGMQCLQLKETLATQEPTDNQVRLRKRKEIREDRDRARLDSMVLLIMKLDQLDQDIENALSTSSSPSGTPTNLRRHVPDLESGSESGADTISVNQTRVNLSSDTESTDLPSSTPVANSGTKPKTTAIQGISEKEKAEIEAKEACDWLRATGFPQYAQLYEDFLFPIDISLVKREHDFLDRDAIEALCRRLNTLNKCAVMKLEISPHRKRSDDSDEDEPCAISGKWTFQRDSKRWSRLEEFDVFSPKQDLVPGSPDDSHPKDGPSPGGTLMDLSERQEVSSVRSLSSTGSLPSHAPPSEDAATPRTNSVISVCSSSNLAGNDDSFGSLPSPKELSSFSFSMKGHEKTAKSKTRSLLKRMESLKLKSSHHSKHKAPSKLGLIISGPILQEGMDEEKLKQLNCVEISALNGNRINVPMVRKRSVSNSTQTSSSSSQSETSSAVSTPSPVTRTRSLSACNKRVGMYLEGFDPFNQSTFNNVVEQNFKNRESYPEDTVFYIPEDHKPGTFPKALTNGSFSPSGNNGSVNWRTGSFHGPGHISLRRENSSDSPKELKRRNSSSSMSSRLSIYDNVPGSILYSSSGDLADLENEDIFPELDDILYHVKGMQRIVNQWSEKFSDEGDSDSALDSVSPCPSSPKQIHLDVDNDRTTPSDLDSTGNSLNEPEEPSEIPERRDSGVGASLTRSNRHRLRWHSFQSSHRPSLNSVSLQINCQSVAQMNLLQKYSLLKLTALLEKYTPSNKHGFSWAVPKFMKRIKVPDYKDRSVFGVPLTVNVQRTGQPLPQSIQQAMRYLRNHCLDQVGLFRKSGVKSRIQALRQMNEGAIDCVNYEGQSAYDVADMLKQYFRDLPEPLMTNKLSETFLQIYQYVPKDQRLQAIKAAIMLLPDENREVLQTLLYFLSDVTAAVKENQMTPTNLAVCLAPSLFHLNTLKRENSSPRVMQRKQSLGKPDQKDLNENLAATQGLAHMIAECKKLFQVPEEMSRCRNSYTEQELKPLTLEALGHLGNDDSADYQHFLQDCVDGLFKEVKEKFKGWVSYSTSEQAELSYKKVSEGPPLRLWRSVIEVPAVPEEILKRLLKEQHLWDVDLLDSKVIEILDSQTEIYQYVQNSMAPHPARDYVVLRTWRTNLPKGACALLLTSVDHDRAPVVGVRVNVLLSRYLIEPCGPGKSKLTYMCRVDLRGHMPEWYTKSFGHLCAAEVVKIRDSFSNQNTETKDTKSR

Substance: pCMV-AD-cten (from UniProt Q8IZW8 1-715) (natural protein)
- fold enhancement of luciferase activity: 4 fold
